Data from patent US20180355046A1 (Boehringer Ingelheim, published 2018).

Biological target: human TrkB receptor on cells (human, UniProt Q16620 32-822)
Assay: cell-based or functional assay

Sequence of human TrkB receptor on cells (Q16620 32-822): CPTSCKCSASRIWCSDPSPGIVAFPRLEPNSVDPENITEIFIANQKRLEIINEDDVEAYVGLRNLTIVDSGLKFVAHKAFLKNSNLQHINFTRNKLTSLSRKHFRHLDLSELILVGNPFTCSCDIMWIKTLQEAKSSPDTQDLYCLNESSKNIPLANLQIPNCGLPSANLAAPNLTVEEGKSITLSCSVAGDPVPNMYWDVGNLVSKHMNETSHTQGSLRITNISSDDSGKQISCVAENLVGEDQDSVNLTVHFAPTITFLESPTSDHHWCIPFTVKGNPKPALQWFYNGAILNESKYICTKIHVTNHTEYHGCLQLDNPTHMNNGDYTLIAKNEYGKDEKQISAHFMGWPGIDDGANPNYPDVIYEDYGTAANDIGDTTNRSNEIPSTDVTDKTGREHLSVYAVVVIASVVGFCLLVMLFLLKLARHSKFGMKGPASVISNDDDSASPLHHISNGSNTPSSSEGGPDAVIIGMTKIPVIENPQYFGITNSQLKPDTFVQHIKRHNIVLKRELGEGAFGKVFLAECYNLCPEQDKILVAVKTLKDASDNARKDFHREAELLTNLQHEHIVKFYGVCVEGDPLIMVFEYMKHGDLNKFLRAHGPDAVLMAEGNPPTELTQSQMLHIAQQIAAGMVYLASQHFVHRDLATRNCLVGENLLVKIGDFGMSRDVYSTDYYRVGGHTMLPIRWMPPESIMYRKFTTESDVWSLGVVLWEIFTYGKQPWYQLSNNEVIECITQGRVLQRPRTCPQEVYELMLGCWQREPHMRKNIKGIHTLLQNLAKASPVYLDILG

AKT 1/2/3-P (T308), differentiated SH-SY5Y cells, EC50: 255 pM | TrkB-P (TrkB phosphorylation, AlphaLISA, differentiated SH-SY5Y cells), EC50: 430 pM
B1: brain-derived neurotrophic factor (BDNF) (ligand, UniProt P23560 129-247, looked up)
chain: HSDPARRGELSVCDSISEWVTAADKKTAVDMSGGTVTVLEKVPVSKGQLKQYFYETKCNPMGYTKEGCRGIDKRHWNSQCRTTQSYVRALTMDSKKRIGWRFIRIDTSCVCTLTIKRGR
